# T1: L-selectin LE-His (monomeric, lectin and EGF-like domains) (human, UniProt P14151 39-194)
# T1 sequence: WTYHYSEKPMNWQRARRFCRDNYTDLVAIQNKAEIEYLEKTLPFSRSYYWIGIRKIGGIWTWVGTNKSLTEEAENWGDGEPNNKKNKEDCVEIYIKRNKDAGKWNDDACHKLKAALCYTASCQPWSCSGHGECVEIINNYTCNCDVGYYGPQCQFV
# Molecular target: T1, L-selectin LE-His (monomeric, lectin …)
# Assay: SPR (single cycle kinetics); 1 mM CaCl2; protein in cell culture supernatant; abstract gives ~12 nM; SPR: HBS-Ca (20 mM HEPES pH 7.5, 150 mM NaCl, 1 mM CaCl2), Biacore X100, temperature not stated; column: PBS with 0.9 mM CaCl2 and 0.5 mM MgCl2, room temperature
# Conditions: protein: recombinant; tags: C-terminal His; label: 5' biotin
binder,measurement,value
GCCAGTACAAGGTGCTAAACGTAATGGC (structured_DNA) [LD201mΔ1],Kd,11.2 ± 0.8 nM

# — paper PMC5336075, “Single-Step Purification of Monomeric l-Selectin via Aptamer Affinity Chromatography”
